In publication PMC314469, “Protein Interaction Networks by Proteome Peptide Scanning” (PLoS Biology, 2004):

Columns and labels:
[1] = molecular target: endophilin SH3 (SH3G2_HUMAN) (UniProt Q99962); assay: SPOT array
[2] = molecular target: amphyphisin SH3 (AMPH_HUMAN) (UniProt P49418); assay: SPOT array

- normalised SPOT signal, Boehringer light units (BLU); mean over the file's lines of this peptide [1]: 269
- normalised SPOT signal, Boehringer light units (BLU); mean over the file's lines of this peptide [2]: 245
Substance: P46781 11-24
